Source: patent publication US20180118818A1

Key:
DsRed = DsRed (UniProt Q9U6Y8); assay: cell-based or functional assay
[1] = target: green fluorescent protein (GFP) (Aequorea-derived) [GFP: P42212]; assay: cell-based or functional assay

Sequence of UniProt Q9U6Y8 (Q9U6Y8 whole entry): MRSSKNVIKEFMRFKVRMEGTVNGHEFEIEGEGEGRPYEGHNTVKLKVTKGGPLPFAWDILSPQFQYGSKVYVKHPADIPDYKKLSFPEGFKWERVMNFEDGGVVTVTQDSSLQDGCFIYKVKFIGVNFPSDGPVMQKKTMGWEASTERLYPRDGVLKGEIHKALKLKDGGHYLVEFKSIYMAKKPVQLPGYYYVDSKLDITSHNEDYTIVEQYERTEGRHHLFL

Substance	% TagBFP+ given GFP+ or DsRed+ cells in ONL (+CAG-DsRed) (DsRed)	% Anti-TagBFP+ given GFP+ cells (CAG promoter for GFP, INL) [1]	% Anti-TagBFP+ given GFP+ cells (CAG promoter for GFP, ONL) [1]	% Anti-TagBFP+ given GFP+ cells (Rho promoter for GFP, ONL) [1]	% GFP+ cells given Anti-TagBFP+ cells (CAG promoter for GFP, INL) [1]	% GFP+ cells given Anti-TagBFP+ cells (CAG promoter for GFP, ONL) [1]	% GFP+ cells given Anti-TagBFP+ cells (Rho promoter for GFP, ONL) [1]	% TagBFP+ given GFP+ or DsRed+ cells in ONL (+CAG-GFP) [1]	fold induction of the Flp-dependent luciferase reporter by GFP, 293T cells [1]
dGBP1-TagBFP (destabilized GBP1 fused to TagBFP) (VHH)	0%	97%	100%	100%	99%	100%	100%	91%	–
dGBP1x2-Flpo (Flp dependent on GFP, Flp-DOG) (VHH)	–	–	–	–	–	–	–	–	636 fold
